T1: N-terminal HIS-tagged human CD83 stably expressed on CHO cells (CHO-hCD83) (human, UniProt Q01151 20-205)
T1 construct: also called CHO cells expressing human CD83; not shown: N-terminal HIS tag
T1 sequence: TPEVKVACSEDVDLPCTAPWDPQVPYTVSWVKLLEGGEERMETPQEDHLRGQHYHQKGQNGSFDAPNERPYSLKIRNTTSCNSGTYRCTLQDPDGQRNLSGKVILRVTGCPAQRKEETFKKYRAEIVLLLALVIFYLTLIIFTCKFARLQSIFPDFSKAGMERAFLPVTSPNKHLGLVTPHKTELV

T2: N-terminal HIS-tagged mouse CD83 stably expressed on CHO cells (CHO-mCD83) (mouse, UniProt O88324 22-196)
T2 construct: whole, on cells; also called CHO cells expressing mouse CD83; not shown: N-terminal HIS tag
T2 sequence (looked up): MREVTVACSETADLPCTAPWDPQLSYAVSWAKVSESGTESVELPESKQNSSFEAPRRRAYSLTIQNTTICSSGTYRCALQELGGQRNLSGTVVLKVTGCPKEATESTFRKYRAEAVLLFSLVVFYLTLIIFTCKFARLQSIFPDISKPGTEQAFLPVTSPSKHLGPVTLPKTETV


Tests used:
[1] = biological target: T1, N-terminal HIS-tagged human CD83 stably …; test: flow cytometry on CHO-hCD83 cells, anti-hamster IgG secondary
Procedure: (§1) The generated antibodies were assayed for their ability to bind human CD83 or mouse CD83 stably expressed on CHO cells. To generate an expression vector for the production of the stable cell lines, a DNA fragment encoding an N-terminal HIS-tagged human CD83 (hCD83) or an N-terminal HIS-tagged mouse CD83 (mCD83) was cloned into the neomycin-resistance plasmid, pRKneo (Crowley et al., Proc Natl Acad Sci USA., 90(11):5021-5025, 1993), at the XbaI and XhoI sites to produce hCD83.pRKneo or mCD83.pRKneo, respectively. CHO cells were transfected with hCD83.pRKneo or mCD83.pRKneo using Fugene (Roche) and the top 10% of CD83 positive cells were sorted by FACS then selected with G418 ([…]; GIBCO) to generate the stable CHO-hCD83 or CHO-mCD83 cell line, respectively. CHO-hCD83 and CHO-mCD83 cells were resuspended in a FACS buffer containing PBS/2% BSA/2 mM EDTA and incubated with anti-human CD83 antibodies or anti-mouse CD83 antibodies for 30 minutes on ice. Cells were washed with FACS buffer and then incubated with a fluorochrome conjugated anti-hamster IgG secondary antibody for 30 minutes on ice in the dark. Cells were washed with FACS buffer and analyzed by flow cytometry on a LSR II flow cytometer using FACSDiva software (Becton Dickinson). Data analysis and construction of diagrams was done using FlowJo v.9.4.11.

[2] = biological target: T2, N-terminal HIS-tagged mouse CD83 stably …; test: flow cytometry on CHO-mCD83 cells, anti-hamster IgG secondary
Procedure: as §1

| Binder | binding result [1] | binding result [2] |
| --- | --- | --- |
| anti-CD83 antibody 60B10 (antibody, V domains shown, also called 60B10 Anti-human CD83) VH: QVQLKESGPGLVKPSQSLSLTCSVTGFSITTGGYWWTWIRQFPGQKLEWMGYIFSSGNTNYNPSIKSRISITRDTSKNQFFLQLNSVTTEGDTARYYCARAYGKLGFDYWGQGTLVTVSS VL: QPVLTQSPSASASLGNSVKITCTLSSQHSTYTIGWYQQHPDKAPKYVMYVNSDGSHSKGDGIPDRFSGSSSGAHRYLSISNIQPEDEADYFCGSSDSSGYVFGSGTQLTVL | binds | binds |
| anti-CD83 antibody 42C6 (antibody, V domains shown, also called 42C6 Anti-mouse CD83) VH: QVQLKESGPGLVKPSQSMSLTCSVNGFSITSRYWWTWIRQFPGKNLEWMGYISYSGGTSYNPSLKSRISITRDTSKNQFFLHLNSVTTADTATYYCARDLYGTYFDYWGQGTMVTVSS VL: QYELIQPKSVSESLGRTVTISCKRSSGNIGNNYVHWYQQHFGSSPKTVIYDDNKRPSGVPHRFSGSIDSSSNSASLTITDLQIEDEAEYYCQSAWVFGSGTKVTVL | no binding | binds |
| anti-CD83 antibody 39A2 (antibody, V domains shown, also called 39A2 Anti-mouse CD83) VH: QVQLKESGPGLVKPSQSMSLTCSVNGFSITSRYWWTWIRQFPGKNLEWMGYISYSGGTSYNPSLKSRISITRDTSKNQFFLHLNSVTTADTATYYCARDLYGTYFDYWGQGTLVTVSS VL: QYELIQPKSVSESLGRTVTISCKRSSGNIGNNYVHWYQQHFGSSPKTVIYDDNKRPSGVPHRFSGSIDSSSNSASLTITDLQIEDEAEYYCQSAWVFGSGTKVTVL | no binding | binds |

Source: patent publication US20140286950A1 (Genentech, published 2014)
